Experimental data from patent US20090280138A1 (OXFORD BIOMEDICA UK, published 2009).

B1: 5T4 9-mer peptide 77 PLADLSPFA (peptide)
peptide: PLADLSPFA
notes: also called Peptide No 77
B2: 5T4 9-mer peptide 4 RGPAAGDGR (peptide)
peptide: RGPAAGDGR
notes: also called Peptide No 4
B3: 5T4 9-mer peptide 145 VFLDNNPWV (peptide)
peptide: VFLDNNPWV
B4: 5T4 9-mer peptide 99 GMVVAALLA (peptide)
peptide: GMVVAALLA
notes: also called Peptide No 99
B5: 5T4 9-mer peptide 106 GLRRLELAS (peptide)
peptide: GLRRLELAS
B6: 5T4 9-mer peptide 11 LALVLLGWV (peptide)
peptide: LALVLLGWV
notes: also called Peptide No 11
B7: 5T4 9-mer peptide 118 SLRHLDLSN (peptide)
peptide: SLRHLDLSN
B8: 5T4 9-mer peptide 174 ILPPSLQTS (peptide)
peptide: ILPPSLQTS
notes: also called Peptide No 174
B9: 5T4 9 mer peptide 58 (PPLAELAAL) (peptide)
peptide: PPLAELAAL
B10: 5T4 9 mer peptide 55 (GAFARRPPL) (peptide)
peptide: GAFARRPPL
B11: 5T4 9 mer peptide 59 (LAELAALNL) (peptide)
peptide: LAELAALNL
B12: 5T4 9 mer peptide 161 (LTCAYPEKM) (peptide)
peptide: LTCAYPEKM
B13: 5T4 9 mer peptide 101 (AALLAGRAL) (peptide)
peptide: AALLAGRAL
B14: 5T4 9 mer peptide 65 (RLDEVRAGA) (peptide)
peptide: RLDEVRAGA
B15: 5T4 9 mer peptide 71 (LPSLRQLDL) (peptide)
peptide: LPSLRQLDL
B16: 5T4 9 mer peptide 117 (LPSLRHLDL) (peptide)
peptide: LPSLRHLDL
B17: 5T4 9 mer peptide 8 (RLRLARLAL) (peptide)
peptide: RLRLARLAL
B18: 5T4 9 mer peptide 23 (APFLASAVS) (peptide)
peptide: APFLASAVS
B19: 5T4 9 mer peptide 43 (VPTDLPAYV) (peptide)
peptide: VPTDLPAYV
B20: 5T4 9 mer peptide 21 (FSSSAPFLA) (peptide)
peptide: FSSSAPFLA
B21: 5T4 9 mer peptide 177 (QTSYVFLGI) (peptide)
peptide: QTSYVFLGI
B22: 5T4 9 mer peptide 198 (HMEGYHYRY) (peptide)
peptide: HMEGYHYRY
B23: 5T4 9 mer peptide 113 (LPRDVLAQL) (peptide)
peptide: LPRDVLAQL
B24: 5T4 9 mer peptide 45 (LPAYVRNLF) (peptide)
peptide: LPAYVRNLF
B25: 5T4 9 mer peptide 17 (SPTSSASSF) (peptide)
peptide: SPTSSASSF
B26: 5T4 9 mer peptide 147 (NNPWVCDCH) (peptide)
peptide: NNPWVCDCH
B27: 5T4 9 mer peptide 100 (VVAALLAGR) (peptide)
peptide: VVAALLAGR
B28: 5T4 9-mer peptide 126 (peptide)
peptide: YVSFRNLTH
B29: 5T4 9-mer peptide 179 (peptide)
peptide: VFLGIVLAL
notes: also called VFLGIVLAL
B30: 5T4 9-mer peptide 183 (peptide)
peptide: LIGAIFLLV
B31: 5T4 9-mer peptide 176 (peptide)
peptide: SLQTSYVFL
B32: 5T4 9-mer peptide 174 (peptide)
peptide: ILPPSLQTS
B33: 5T4 9-mer peptide 187 (peptide)
peptide: VLYLNRKGI
B34: 5T4 9-mer peptide 151 (peptide)
peptide: HMADMVTWL
B35: 5T4 9-mer peptide 182 (peptide)
peptide: LALIGAIFL
B36: 5T4 9-mer peptide 163 (peptide)
peptide: YPEKMRNRV
B37: 5T4 9-mer peptide 71 (peptide)
peptide: LPSLRQLDL
B38: 5T4 9-mer peptide 117 (peptide)
peptide: LPSLRHLDL
B39: 5T4 9-mer peptide 58 (peptide)
peptide: PPLAELAAL
notes: also called PPLAELAAL
B40: 5T4 9-mer peptide 101 (peptide)
peptide: AALLAGRAL
notes: also called AALLAGRAL
B41: 5T4 9-mer peptide 23 (peptide)
peptide: APFLASAVS
B42: 5T4 9-mer peptide 55 (peptide)
peptide: GAFARRPPL
B43: 5T4 9-mer peptide 45 (peptide)
peptide: LPAYVRNLF
B44: 5T4 9-mer peptide 17 (peptide)
peptide: SPTSSASSF
B45: 5T4 9-mer peptide 113 (peptide)
peptide: LPRDVLAQL
B46: 5T4 9-mer peptide 8 (peptide)
peptide: RLRLARLAL
notes: also called RLRLARLAL
B47: 5T4 9-mer peptide 99 (peptide)
peptide: GMVVAALLA
B48: 5T4 9-mer peptide 65 (peptide)
peptide: RLDEVRAGA
B49: 5T4 9-mer peptide 77 (peptide)
peptide: PLADLSPFA
B50: 5T4 9-mer peptide 22 (peptide)
peptide: SSAPFLASA
B51: 5T4 9-mer peptide 90 (peptide)
peptide: ILNHIVPPE
B52: 5T4 9-mer peptide 59 (peptide)
peptide: LAELAALNL

target: T1, MHC class I molecule HLA-A*0201 (iTopia plate-bound monomer) (biotin (bound to streptavidin-coated plate)); assay: iTopia off-rate assay, 37 C; fit R^2 0.93
T1 construct: also called A2
Experimental: (§1) The 9 mers were tested for Peptide Binding, Off Rate and Affinity using iTopia Epitope Discovery System in accordance with the manufacturer's instructions. Briefly, 96 well microtitre plates coated with MHC molecules representing different MHC alleles are used to identify candidate peptides. […] Determinations are performed in duplicate using an ELISA plate reader and included allele specific positive controls.
A one-phase exponential decay curve, with a plateau given equal to 0, was generated using GraphPad Prism® software, which calculated the t1/2 and goodness-of-fit, as measured by r², for each peptide.

Row | Binder | t½ half life
1 | B1 | 4.8 h
2 | B2 | 1.2 h
3 | B3 | 1.2 h
4 | B4 | 1.8 h
5 | B5 | 0.4 h
6 | B6 | 1.6 h
7 | B7 | 0.4 h
8 | B8 | 5 h

target: T2, MHC class I molecule A*0201 (biotin (bound via biotin to streptavidin-coated plates)); assay: iTopia affinity assay (ED50), peptide titration on plate-bound MHC
T2 construct: also called A2; HLA-A2
Experimental: as §1
(§2) Dose-response curves of peptide binding to MHC were prepared by peptide titration to determine the ED50 measurement for each peptide. Values for the concentrations tested (in duplicate) were obtained as a percentage of the highest (9000×) concentration of the positive control peptide. A dose-response curve was generated using GraphPad Prism® curve fitting software, which automatically calculated the ED50 (in Molarity) for each peptide.

Row | Binder | EC50
9 | B9 | 40 µM
10 | B10 | 0.8 µM
11 | B11 | 2 µM
12 | B12 | 10 µM
13 | B13 | 4 µM
14 | B14 | 20 µM
15 | B15 | 5 µM
16 | B16 | 20 µM
17 | B17 | 0.06 µM
18 | B18 | 20 µM
19 | B19 | 20 µM

target: T3, MHC class I molecule A*0101 (biotin (bound via biotin to streptavidin-coated plates)); assay: as above
T3 construct: also called A1; HLA-A1
Experimental: as §1, §2

Row | Binder | EC50
20 | B20 | 20 µM
21 | B21 | 20 µM
22 | B12 | 20 µM
23 | B22 | 3 µM
24 | B19 | 20 µM

target: T4, MHC class I molecule B*0702 (biotin (bound via biotin to streptavidin-coated plates)); assay: as above
T4 construct: Methods name B*0702 as the allele used; also called B7; HLA-B7
Experimental: as §1, §2

Row | Binder | EC50
25 | B9 | 30 µM
26 | B10 | 10 µM
27 | B23 | 10 µM
28 | B11 | 20 µM
29 | B13 | 7 µM
30 | B14 | 20 µM
31 | B15 | 3 µM
32 | B16 | 5 µM
33 | B24 | 2 µM
34 | B17 | 0.02 µM
35 | B18 | 20 µM
36 | B25 | 2 µM

target: T5, MHC class I molecule A*0301 (biotin (bound via biotin to streptavidin-coated plates)); assay: as above
T5 construct: also called A3; HLA-A3
Experimental: as §1, §2

Row | Binder | EC50
37 | B26 | 3 µM
38 | B14 | 40 µM
39 | B27 | 10 µM
40 | B17 | 0.4 µM

target: T6, MHC class I allele A*0101 monomer (human, biotinylated, bound to streptavidin-coated plate); assay: iTopia, multiparametric iScore
T6 construct: placeholder peptide and b2M removed, then reconstituted with test peptide and fresh b2M; also called A1; HLA-A1
In short: (§3)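 9-mer peptides were tested on plates coated with MHC molecules, measuring binding, off-rate and affinity by ELISA in duplicate with allele-specific positive controls.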

Row | Binder | iScore
41 | B28 | 0
42 | B29 | 0
43 | B30 | 0
44 | B31 | 0
45 | B32 | 0
46 | B33 | 0
47 | B34 | 0
48 | B35 | 0
49 | B36 | 0

target: T7, MHC class I allele A*0301 monomer (human, biotinylated, bound to streptavidin-coated plate); assay: iTopia, multiparametric iScore
T7 construct: also called A3; HLA-A3
In short: as §3

Row | Binder | iScore
50 | B28 | 0.086
51 | B29 | 0
52 | B30 | 0.07
53 | B31 | 0
54 | B32 | 0
55 | B33 | 0.017
56 | B34 | 0
57 | B35 | 0
58 | B36 | 0

target: T8, MHC class I allele B*0702 monomer (human, biotinylated, bound to streptavidin-coated plate); assay: iTopia, multiparametric iScore
T8 construct: also called B7; HLA-B7
In short: as §3

Row | Binder | iScore
59 | B28 | 0.21
60 | B29 | 0
61 | B30 | 0
62 | B31 | 0
63 | B32 | 0
64 | B33 | 0.164
65 | B34 | 0
66 | B35 | 0.067
67 | B36 | 0.242

target: T9, MHC class I allele A*0201 monomer (human, biotinylated, bound to streptavidin-coated plate); assay: iTopia, multiparametric iScore
T9 construct: also called A2; HLA-A2
In short: as §3

Row | Binder | iScore
68 | B28 | 0
69 | B29 | 0.606
70 | B31 | 0.561
71 | B32 | 0.523
72 | B33 | 0.095
73 | B34 | 0.821
74 | B35 | 0.425
75 | B36 | 0

target: T8, MHC class I allele B*0702 monomer; assay: iTopia, multiparametric iScore; remark: another data set of the same source
Experimental: as §1
(§4) Finally, multiparametric analysis is performed on the results from these assays and an iScore is generated. The iScore represents a measure of the overall quality of peptide-MHC binding, enabling candidate peptides to be ranked in order of binding quality and allowing rational prioritisation of peptides for functional cellular follow-up studies.

Row | Binder | iScore
76 | B28 | 0.21
77 | B37 | 0.454
78 | B38 | 0.445
79 | B39 | 0.145
80 | B40 | 0.238
81 | B41 | 0.176
82 | B33 | 0.164
83 | B42 | 0.359
84 | B43 | 0.389
85 | B44 | 0.335
86 | B45 | 0.305
87 | B46 | 1
88 | B36 | 0.242

target: T9, MHC class I allele A*0201 monomer; assay: iTopia, multiparametric iScore; remark: another data set of the same source
Experimental: as §1, §4

Row | Binder | iScore
89 | B47 | 0.384
90 | B48 | 0.422
91 | B29 | 0.606
92 | B30 | 1.9
93 | B49 | 0.556
94 | B50 | 0.389
95 | B31 | 0.561
96 | B32 | 0.523
97 | B51 | 0.426
98 | B52 | 0.72
99 | B34 | 0.821
100 | B35 | 0.425
